Patent US20220402985A1
Numbering of substitutions follows the chain as printed. Values joined by “and” are separate entries in the source; they are usually repeats but may differ in a detail not shown here. Equal entries are not always repeated. One block for each molecule: values may come before it.

Tests used:
[1] = biological target: ErbB4 on neonatal rat cardiomyocytes (rat) (UniProt Q62956); assay: cell-based or functional assay
[2] = biological target: ErbB3 on rat Schwann cells (rat) (UniProt Q62799); assay: cell-based or functional assay
Chain of ErbB3 on rat Schwann cells (rat) (Q62799 20-1339): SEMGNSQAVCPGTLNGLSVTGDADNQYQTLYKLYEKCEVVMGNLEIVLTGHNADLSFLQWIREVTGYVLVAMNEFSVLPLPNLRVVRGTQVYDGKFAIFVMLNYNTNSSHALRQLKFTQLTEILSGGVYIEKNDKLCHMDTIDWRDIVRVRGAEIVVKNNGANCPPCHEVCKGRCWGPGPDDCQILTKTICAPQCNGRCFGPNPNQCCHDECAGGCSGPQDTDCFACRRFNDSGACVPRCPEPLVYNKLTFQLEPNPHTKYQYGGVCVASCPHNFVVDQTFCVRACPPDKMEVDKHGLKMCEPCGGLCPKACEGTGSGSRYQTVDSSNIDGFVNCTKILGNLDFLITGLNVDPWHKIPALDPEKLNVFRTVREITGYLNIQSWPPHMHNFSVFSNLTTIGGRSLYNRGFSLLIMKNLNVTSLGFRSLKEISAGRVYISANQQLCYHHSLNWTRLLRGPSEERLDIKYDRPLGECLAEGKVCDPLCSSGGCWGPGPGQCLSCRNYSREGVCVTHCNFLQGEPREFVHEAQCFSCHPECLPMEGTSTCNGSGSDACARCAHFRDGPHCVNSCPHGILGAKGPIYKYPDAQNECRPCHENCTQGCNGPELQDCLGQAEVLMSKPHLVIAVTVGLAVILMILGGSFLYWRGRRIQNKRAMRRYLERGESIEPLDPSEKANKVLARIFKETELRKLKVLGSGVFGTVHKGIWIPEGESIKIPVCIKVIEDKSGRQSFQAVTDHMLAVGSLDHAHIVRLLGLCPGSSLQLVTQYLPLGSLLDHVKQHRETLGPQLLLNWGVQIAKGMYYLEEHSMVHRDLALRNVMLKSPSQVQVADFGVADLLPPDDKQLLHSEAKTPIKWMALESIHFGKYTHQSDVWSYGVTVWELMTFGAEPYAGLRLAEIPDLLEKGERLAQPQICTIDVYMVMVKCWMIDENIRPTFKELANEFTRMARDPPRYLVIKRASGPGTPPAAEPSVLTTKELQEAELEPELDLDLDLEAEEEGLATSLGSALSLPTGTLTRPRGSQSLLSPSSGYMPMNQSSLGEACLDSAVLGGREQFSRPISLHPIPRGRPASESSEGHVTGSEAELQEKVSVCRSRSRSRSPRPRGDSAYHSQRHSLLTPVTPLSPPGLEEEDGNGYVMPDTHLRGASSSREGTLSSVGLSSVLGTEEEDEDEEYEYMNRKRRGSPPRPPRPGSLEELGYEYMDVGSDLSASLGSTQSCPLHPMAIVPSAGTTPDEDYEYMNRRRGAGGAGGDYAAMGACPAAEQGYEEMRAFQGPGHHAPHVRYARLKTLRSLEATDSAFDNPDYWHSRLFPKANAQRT

Chain of ErbB4 on neonatal rat cardiomyocytes (rat) (Q62956 26-1308): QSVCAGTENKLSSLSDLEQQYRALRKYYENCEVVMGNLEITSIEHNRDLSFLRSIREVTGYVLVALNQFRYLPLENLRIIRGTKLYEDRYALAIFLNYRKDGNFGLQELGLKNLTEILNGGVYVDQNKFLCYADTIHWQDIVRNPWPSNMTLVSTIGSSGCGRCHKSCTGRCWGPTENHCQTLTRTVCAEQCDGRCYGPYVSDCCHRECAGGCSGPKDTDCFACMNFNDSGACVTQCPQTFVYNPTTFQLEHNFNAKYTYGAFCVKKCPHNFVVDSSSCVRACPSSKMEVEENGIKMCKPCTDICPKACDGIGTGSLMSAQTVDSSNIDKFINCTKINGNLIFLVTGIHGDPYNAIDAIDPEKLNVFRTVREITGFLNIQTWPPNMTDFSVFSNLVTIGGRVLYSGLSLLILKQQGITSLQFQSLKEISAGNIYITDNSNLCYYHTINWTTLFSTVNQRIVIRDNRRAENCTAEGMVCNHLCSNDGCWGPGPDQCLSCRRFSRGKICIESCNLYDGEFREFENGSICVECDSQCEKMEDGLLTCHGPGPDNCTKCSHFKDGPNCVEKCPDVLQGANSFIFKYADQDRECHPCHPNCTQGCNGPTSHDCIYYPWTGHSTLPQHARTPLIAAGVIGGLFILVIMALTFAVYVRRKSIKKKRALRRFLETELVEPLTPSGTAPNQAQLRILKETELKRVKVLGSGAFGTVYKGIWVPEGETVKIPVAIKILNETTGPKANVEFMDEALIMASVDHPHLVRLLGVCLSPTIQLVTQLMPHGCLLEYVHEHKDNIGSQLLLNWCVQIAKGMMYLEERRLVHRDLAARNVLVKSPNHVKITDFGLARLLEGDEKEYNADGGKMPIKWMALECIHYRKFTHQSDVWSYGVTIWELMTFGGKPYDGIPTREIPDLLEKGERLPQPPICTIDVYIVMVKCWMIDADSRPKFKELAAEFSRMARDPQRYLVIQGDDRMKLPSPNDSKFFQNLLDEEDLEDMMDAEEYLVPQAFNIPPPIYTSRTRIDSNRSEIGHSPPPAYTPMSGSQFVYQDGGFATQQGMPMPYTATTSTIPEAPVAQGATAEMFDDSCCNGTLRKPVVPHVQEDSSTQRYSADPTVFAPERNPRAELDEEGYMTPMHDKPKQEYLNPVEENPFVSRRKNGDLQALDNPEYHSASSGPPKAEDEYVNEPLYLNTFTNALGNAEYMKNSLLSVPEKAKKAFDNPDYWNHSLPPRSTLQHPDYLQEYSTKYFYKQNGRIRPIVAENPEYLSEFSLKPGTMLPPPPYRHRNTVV

Cardiomyocyte (CM) (ErbB4) Avg EC50 [1]: 2.6 nM
Selectivity SC/CM [1]: 0.03
Schwann cells (SC) (ErbB3) Avg EC50 [2]: 0.07 nM
Molecule: huNRG1(S177-S228)(wt)::3x(G4Q)::huFcSEFL2 (Pb) (from UniProt P0DOX5 300-449) (Fc fusion)

CM % Agonism AVG [1]: 92.6%
Cardiomyocyte (CM) (ErbB4) Avg EC50 [1]: 0.084 nM
Selectivity SC/CM [1]: 0.264
Schwann cells (SC) (ErbB3) Avg EC50 [2]: 0.0222 nM
Molecule: huNRG1(S177-S228)(wt)((G4E)2:G4)::huFcSEFL2 (Pb) (Fc fusion)

Cardiomyocyte (CM) (ErbB4) Avg EC50 [1]: 0.21 nM
Selectivity SC/CM [1]: 0.3
Schwann cells (SC) (ErbB3) Avg EC50 [2]: 0.07 nM
Molecule: huNRG1(S177-Q237)(wt)::3x(G4Q)::huFcSEFL2 (Pb) (from UniProt P0DOX5 223-449) (Fc fusion)

CM % Agonism AVG [1]: 84%
Cardiomyocyte (CM) (ErbB4) Avg EC50 [1]: 0.218 nM
Selectivity SC/CM [1]: > 10000
Schwann cells (SC) (ErbB3) Avg EC50 [2]: > 10000 nM
B4: huNRG1(S177-Q237)(NRGE1G)::GG::huFcSEFL2 (Pb) (Fc fusion)
chain: SHLVKCGEKHKSFCVNGGECYMVEGSSIPSRYLCKCPNEFTGDRCQNDFMASFYKAEELYQGGDKTHTCPPCPAPELLGGPSVFLFPPKPKDTLMISRTPEVTCVVVDVSHEDPEVKFNWYVDGVEVHNAKTKPCEEQYGSTYRCVSVLTVLHQDWLNGKEYKCKVSNKALPAPIEKTISKAKGQPREPQVYTLPPSREEMTKNQVSLTCLVKGFYPSDIAVEWESNGQPENNYKTTPPVLDSDGSFFLYSKLTVDKSRWQQGNVFSCSVMHEALHNHYTQKSLSLSPGK

CM % Agonism AVG [1]: 83%
Cardiomyocyte (CM) (ErbB4) Avg EC50 [1]: 0.303 nM and 0.33 nM
Selectivity SC/CM [1]: > 10000
Schwann cells (SC) (ErbB3) Avg EC50 [2]: > 10000 nM
B5: huNRG1(S177-Q237)(NRGE1D)::GG::huFcSEFL2 (Pb) (Fc fusion)
chain: B4 chain with K9S, N47E

CM % Agonism AVG [1]: 30%
Cardiomyocyte (CM) (ErbB4) Avg EC50 [1]: 25.6 nM
Selectivity SC/CM [1]: 39
Schwann cells (SC) (ErbB3) Avg EC50 [2]: 1010 nM
B6: huNRG1(S177-Q237)(NRGE1M)::GG::huFcSEFL2 (Pb) (Fc fusion)
chain: B4 chain with K9N, H10D, Y21F, V23I, S26P, I28N, N47D, D48F

CM % Agonism AVG [1]: 74%
Cardiomyocyte (CM) (ErbB4) Avg EC50 [1]: 2.29 nM
Selectivity SC/CM [1]: > 4370
Schwann cells (SC) (ErbB3) Avg EC50 [2]: > 10000 nM
B7: huNRG1(S177-Q237)(NRGE1L)::GG::huFcSEFL2 (Pb) (Fc fusion)
chain: B4 chain with K9S, N47D

CM % Agonism AVG [1]: 67%
Cardiomyocyte (CM) (ErbB4) Avg EC50 [1]: 22.9 nM
Selectivity SC/CM [1]: 437
Schwann cells (SC) (ErbB3) Avg EC50 [2]: > 10000 nM
B8: huNRG1(S177-Q237)(NRGE1I)::GG::huFcSEFL2 (Pb) (Fc fusion)
chain: B4 chain with K9N, H10D, Y21F, V23I, S26P, I28N, N47D

Continued, molecule first:

Molecule: huNRG1(S177-F229)(wt)::3x(G4Q)::huFcSEFL2 (Pb) (Fc fusion)
Cardiomyocyte (CM) (ErbB4) Avg EC50 [1]: 0.34 nM
Selectivity SC/CM [1]: 0.3
Schwann cells (SC) (ErbB3) Avg EC50 [2]: 0.1 nM

Molecule: huNRG1(S177-F229) huIgG1z SELF2 Fc (Fc fusion)
CM % Agonism AVG [1]: 91.4%
Cardiomyocyte (CM) (ErbB4) Avg EC50 [1]: 0.31 nM
Selectivity SC/CM [1]: 0.452
Schwann cells (SC) (ErbB3) Avg EC50 [2]: 0.14 nM

B1: :huFcSEFL2(desK)vl31(+):G4SG4:huNRG1(S177-Q237)(NRGE1C) (Fc fusion)
chain: DKTHTCPPCPAPELLGGPSVFLFPPKPKDTLMISRTPEVTCVVVDVSHEDPEVKFNWYVDGVEVHNAKTKPCEEQYGSTYRCVSVLTVLHQDWLNGKEYKCKVSNKALPAPIEKTISKAKGQPREPQVYTLPPSREKMTKNQVSLTCLVKGFYPSDIAVEWESNGQPENNYKTTPPVLKSDGSFFLYSKLTVDKSRWQQGNVFSCSVMHEALHNHYTQKSLSLSPGGGGGSGGGGSHLVKCGEKHKSFCVNGGECFMIEGPSNPSRYLCKCPNEFTGDRCQEDFMASFYKAEELYQDKTHTCPPCPAPELLGGPSVFLFPPKPKDTLMISRTPEVTCVVVDVSHEDPEVKFNWYVDGVEVHNAKTKPCEEQYGSTYRCVSVLTVLHQDWLNGKEYKCKVSNKALPAPIEKTISKAKGQPREPQVYTLPPSREEMTENQVSLTCLVEGFYPSDIAVEWESNGQPENNYETTPPVLDSDGSFFLYSDLTVDKSRWQQGNVFSCSVMHEALHNHYTQKSLSLSPGK
CM % Agonism AVG [1]: 85.4%
Cardiomyocyte (CM) (ErbB4) Avg EC50 [1]: 0.3 nM
Selectivity SC/CM [1]: > 10000

B2: :huFcSEFL2(desK)vl31(+):G4SG4:huNRG1(S177-Q237)(NRGE1D) (Fc fusion)
chain: B1 chain with K244S, F256Y, I258V, P261S, N263I
CM % Agonism AVG [1]: 88.7%
Cardiomyocyte (CM) (ErbB4) Avg EC50 [1]: 0.23 nM
Selectivity SC/CM [1]: > 10000

B3: huNRG1(S177-Q237)(NRGE1A)::GG::huFcSEFL2 (Pb) (Fc fusion)
chain: B4 chain with G7A, K9N, H10D, Y21F, V23I, S26P, I28N, N47E
CM % Agonism AVG [1]: 72%
Cardiomyocyte (CM) (ErbB4) Avg EC50 [1]: 1.84 nM
Selectivity SC/CM [1]: > 5500
Schwann cells (SC) (ErbB3) Avg EC50 [2]: > 10000 nM

B9: huNRG1(S177-Q237)(NRGE1B)::GG::huFcSEFL2 (Pb) (Fc fusion)
chain: B4 chain with K9N, H10D, N47E
CM % Agonism AVG [1]: 76%
Cardiomyocyte (CM) (ErbB4) Avg EC50 [1]: 1.48 nM
Selectivity SC/CM [1]: > 6700
Schwann cells (SC) (ErbB3) Avg EC50 [2]: > 10000 nM
